Assay results taken from the nanobody polyreactivity screen of Harvey et al. (2022).

Assay: yeast display, Sf9 membrane polyspecificity reagent, FACS + sequencing; frameworks hold sequencing errors
Outline: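 Using colony PCR, genes from sorted yeast display clones were amplified, then sequenced on MiSeq at 2 × 250 and filtered by CDR length. The clones had been stained with 10% biotinylated, detergent-solubilized Sf9 membrane reagent for 1 hour at 4 °C and sorted by FACS into low and high (top ~1%) gates on anti-HA and streptavidin fluorescence. Polyreactivity labels come from the gate of origin.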

Sequence | polyreactivity (PSR sort gate)
QVQLVESGGGLVQAGGSLRLSCAASGFTFRYYAMGWYRQAPGKERELVAAINSGDSTNYADSVKGRFTISRDNAKNTVYLQMNSLKPEDTAVYYCATRLWKIPGAMYYWGQGTQVTVSS | high polyreactivity
QVQLVESGGGLVQAGGSLRLSCAASGFTFRYYAMGWYRQAPGKERELVAAISAGGGSTYYADSVKGRFTISRDNAKNTVYLQMNSLKPEDTAGYYCAAAGARPGYDYWGQGTQVTVSS | high polyreactivity
QVQLVESGGGLVQAGGSLRLSCAASGFTFRYYAMGWYRQAPGKERELVAAISARGTSTYYADSVKGRFTISRDNAKITVYLQMNSLKPEDTAVYYCAARYGLYPARGYDYWGQGTQVSVSS | high polyreactivity
QVQLVESGGGLVQAGGSLRLSCAASGFTFRYYAMGWYRQAPGKERELVAAISYNGGSTYYADSVKGRFTISRDNAKNTVYLQMNSLKPEDTAVYYCAADGGRRFGYWGQGTQVTVSS | high polyreactivity
QVQLVESGGGLVQAGGSLRLSCAASGFTFRYYAMGWYRQAPGKERELVAGISSRGGSTYYADSVKGRFTISRDNAKNTDYLQMNSLKTEDTAVYYCATERFLLGLGYDYWGQGTQVTVSS | high polyreactivity
QVQLVESGGGLVQAGGSLRLSCAASGFTFRYYAMGWYRQAPGKERELVASITGGGRTYYADSVKGRFTISRDNAKNTVYLQMNSLKPEDTAVYYCATLLAYRLGSGYDSWGQGTQVTVSS | high polyreactivity
QVQLVESGGGLVQAGGSLRLSCAASGFTFRYYVMGWYRQAPGNEREFVAAITWADGSTFYAVSVKGRFTISRDKAKNTDYLHMNSLKPEDTAVYYCAADYSRTYRAYDYWGQGTQVTVSS | low polyreactivity
QVQLVESGGGLVQAGGSLRLSCAASGFTFSDHAMGWYRQAPGKERELVAAISRSRGNTHYADSVKGRFTISRDNAKNTVYLQMNSLKPEDTAVYYCNAVQGQGQYEYWGQATQVTVSS | high polyreactivity
QVQLVESGGGLVQAGGSLRLSCAASGFTFSDNAMVWYRQAPGKERELVAAISEGSGITYYADSVKGRFTISRDNAKNTVTLQMNSLKPEDNAVYYCAADWLSKYDYWGQGTQVTVSS | low polyreactivity
QVQLVESGGGLVQAGGSLRLSCAASGFTFSFYAMGWYIQAPGKERELVAVISKSGGRTYYADSVKGRFTISRDNAKNTVYLQMNSLKPEDTAVYYCAAKRTSTRIYTFEYWGQGTQVTVSS | high polyreactivity
QVQLVESGGGLVQAGGSLRLSCAASGFTFSFYAMGWYRQAPGKERELVAAISSGGRTSYADSVKGRFTISRDNAKNTVYLQMNSLKPEDTAVYYCAASYPGRYWLYRYEYWGQGTQVTVSS | high polyreactivity
QVQLVESGGGLVQAGGSLRLSCAASGFTFSFYAMGWYRQAPGKERELVAAITWSGGNTYYADSVKGRFTISRDNAKNTVDLQMNSLKPEDTAVYYCAARGPASVRYYYWGQGTQVTVSS | high polyreactivity
QVQLVESGGGLVQAGGSLRLSCAASGFTFSFYAMGWYRQAPGKERELVAGISKRGGSTYYADSVKGRFTISRDNAKKTVFLQMNSLKPEDTAVYYCARSYYTNGNALKRDYWGQGTQVTVSS | high polyreactivity
QVQLVESGGGLVQAGGSLRLSCAASGFTFSFYAMGWYRQAPGKERELVATISSGGSTTYADSVKGRFTISRDNAKNTVYLQMNSLKPEDTEVYYCAARYGRVRNYRYDYWGQGTQVTVSS | high polyreactivity
QVQLVESGGGLVQAGGSLRLSCAASGFTFSFYAMGWYRQAPGKERELVATISSGGSTTYAVSVKGRFTISRDNAKNTVYLQMNSLKPEDTAVYYCNARPGQSGARFGYWGQGTQVTVSS | high polyreactivity
QVQLVESGGGLVQAGGSLRLSCAASGFTFSFYTMGWYRQAPGKERELVAAISTSGSTYYADSVKGRFTISRDNAKNTVYLQMNSLKPEDTAVYYCAAGRWWRYFTWHGYWGQGTQVTVSS | high polyreactivity
QVQLVESGGGLVQAGGSLRLSCAASGFTFSGHTMGWSRQAPGKERELVATISRTGGITYYADSVKGRFTISRDNAKNTVLLQMNSLKPEDTAVYYCNRRYYYFVYPDDYWGQGTQVTVSS | high polyreactivity
